The source of these data is US20140107039.

Chain of H3.3K27M peptide (18-37) (chain, as listed by the source): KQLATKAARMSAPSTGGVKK

For “Polycomb Repressive Complex 2 (PRC2), purified through FLAG-tagged human EED from HeLa or HEK293T nuclear extract”, the “Apparent Vmax of PRC2 methyltransferase reaction at varying mononucleosome concentrations” value in the data set with H3.3K27M peptide (18-37) is listed as “showed a reduction in the apparent Vmax by addition of the K27M peptide”; in the data set on H3K27ac peptide (18-37), “PRC2 reactions that contained H3K27ac peptide of identical peptide concentrations did not decrease the apparent Vmax of the reaction”.
